Molecular target: MYC(352–437):MAX(22–102) heterodimer (human) (UniProt P61244)
Experiment: NMR titration

Sequence of MYC(352–437):MAX(22–102) heterodimer (human) (P61244 whole entry, looked up, tested part not stated, one chain of several): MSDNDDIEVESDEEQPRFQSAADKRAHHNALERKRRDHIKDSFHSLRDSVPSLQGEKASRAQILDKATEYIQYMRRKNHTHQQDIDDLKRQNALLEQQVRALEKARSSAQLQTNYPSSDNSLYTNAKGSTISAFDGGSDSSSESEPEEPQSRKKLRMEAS

- Kd: 7 µM
Substance: MYC(11–34), Mb0 peptide

— paper doi:10.1101/2023.06.21.545551
